Test results taken from PMC12290059.

Target: recombinant SARS-CoV-2^RBD (biotinylated, AVI-tagged) (SARS-CoV-2) (UniProt P0DTC2)
Assay: BLI

Substance: N. vison ACE2 used in biolayer interferometry (domain or fragment)
- Kd: 1.5 nM
